B1: AGG-element oligo (dsDNA)
DNA 1: TTTGGGAGGCCGAGGTGGG
DNA 2: CCCACCTCGGCCTCCCAAA
B2: AGG oligo, unlabeled (dsDNA)
DNA 1: TTTGGGAGGCCGAGGTGGG
DNA 2: CCCACCTCGGCCTCCCAAA

What was measured:
[1] = biological target: Myc-STAT3 1-355 (purified) (UniProt P40763 1-355); test: pull-down; IL-6; Pull-down: 20 mM Hepes pH 7.9, 100 mM KCl, 5 mM MgCl2, 0.1 mM EDTA, 4 mM DTT, 12% glycerol, 60 min room temperature (Fig 6D: 30 min on ice); EMSA: LightShift chemiluminescent kit, buffer not stated; conditions: protein: recombinant; tags: Myc; label: 5'-biotin
Chain of Myc-STAT3 1-355 (purified) (P40763 1-355): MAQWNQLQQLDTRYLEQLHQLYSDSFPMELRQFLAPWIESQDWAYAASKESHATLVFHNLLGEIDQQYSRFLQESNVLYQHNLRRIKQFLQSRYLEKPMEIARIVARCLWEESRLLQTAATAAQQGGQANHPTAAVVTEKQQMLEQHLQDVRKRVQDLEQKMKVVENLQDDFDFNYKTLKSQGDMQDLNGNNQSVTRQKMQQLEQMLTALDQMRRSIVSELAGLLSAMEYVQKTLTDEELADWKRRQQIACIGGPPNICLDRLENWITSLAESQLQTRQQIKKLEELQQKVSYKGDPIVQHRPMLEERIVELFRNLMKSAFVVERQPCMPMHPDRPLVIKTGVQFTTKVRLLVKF

[2] = biological target: Myc-STAT3 C-terminal region (purified) (UniProt P40763 465-770); test: as above; conditions: protein: recombinant; tags: Myc; label: 5'-biotin
Chain of Myc-STAT3 C-terminal region (purified) (P40763 465-770): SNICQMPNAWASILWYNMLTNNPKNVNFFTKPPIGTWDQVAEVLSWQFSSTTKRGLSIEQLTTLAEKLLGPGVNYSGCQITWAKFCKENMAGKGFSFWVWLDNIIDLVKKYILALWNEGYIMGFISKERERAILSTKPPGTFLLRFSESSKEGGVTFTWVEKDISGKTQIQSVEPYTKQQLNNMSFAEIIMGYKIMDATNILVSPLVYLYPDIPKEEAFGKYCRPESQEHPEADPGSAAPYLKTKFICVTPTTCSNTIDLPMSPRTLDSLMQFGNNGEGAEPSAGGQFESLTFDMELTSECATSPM

[3] = biological target: T1, Myc-STAT3 wild type (purified) (UniProt P40763 1-770); test: EMSA; 2 ug protein, 1 nM probe; less efficient than SIE; Pull-down: 20 mM Hepes pH 7.9, 100 mM KCl, 5 mM MgCl2, 0.1 mM EDTA, 4 mM DTT, 12% glycerol, 60 min room temperature (Fig 6D: 30 min on ice); EMSA: LightShift chemiluminescent kit, buffer not stated; conditions: protein: recombinant; tags: Myc; chain copies: 2; label: 5'-biotin
T1 sequence (P40763 whole entry): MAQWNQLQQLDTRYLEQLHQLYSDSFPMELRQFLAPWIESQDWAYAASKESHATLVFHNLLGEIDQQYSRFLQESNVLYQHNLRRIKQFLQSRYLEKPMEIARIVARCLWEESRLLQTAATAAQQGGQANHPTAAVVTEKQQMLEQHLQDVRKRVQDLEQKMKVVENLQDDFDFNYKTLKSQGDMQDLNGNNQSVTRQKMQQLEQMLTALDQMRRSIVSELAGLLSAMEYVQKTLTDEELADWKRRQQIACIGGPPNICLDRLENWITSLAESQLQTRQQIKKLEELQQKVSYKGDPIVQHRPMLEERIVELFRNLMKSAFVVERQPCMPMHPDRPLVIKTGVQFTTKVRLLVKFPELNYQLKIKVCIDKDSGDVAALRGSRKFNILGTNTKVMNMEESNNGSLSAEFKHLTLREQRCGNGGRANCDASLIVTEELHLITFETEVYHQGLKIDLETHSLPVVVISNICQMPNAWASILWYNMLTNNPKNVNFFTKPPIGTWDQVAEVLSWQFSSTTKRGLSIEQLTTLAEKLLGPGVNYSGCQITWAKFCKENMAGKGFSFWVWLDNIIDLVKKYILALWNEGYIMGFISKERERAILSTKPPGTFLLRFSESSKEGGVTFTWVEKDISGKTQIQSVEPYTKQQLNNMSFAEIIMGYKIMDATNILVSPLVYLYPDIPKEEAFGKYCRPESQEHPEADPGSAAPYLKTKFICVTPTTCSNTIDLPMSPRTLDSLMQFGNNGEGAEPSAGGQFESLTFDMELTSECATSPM

[4] = biological target: Myc-STAT3 R382Q (purified) (UniProt P40763 1-770, R382Q); test: pull-down; IL-6; enhanced vs WT; Pull-down: 20 mM Hepes pH 7.9, 100 mM KCl, 5 mM MgCl2, 0.1 mM EDTA, 4 mM DTT, 12% glycerol, 60 min room temperature (Fig 6D: 30 min on ice); EMSA: LightShift chemiluminescent kit, buffer not stated; conditions: protein: recombinant; tags: Myc; chain copies: 2; label: 5'-biotin
Chain of Myc-STAT3 R382Q (purified) (P40763 whole entry R382Q): as the sequence (P40763 whole entry) above, with R382Q counted along it

[5] = biological target: Myc-STAT3 V461/462/463A (purified) (UniProt P40763 1-770, V461A;V462A;V463A); test: as above; conditions: protein: recombinant; tags: Myc; chain copies: 2; label: 5'-biotin
Chain of Myc-STAT3 V461/462/463A (purified) (P40763 whole entry V461A/V462A/V463A): as the sequence (P40763 whole entry) above, with V461A, V462A, V463A counted along it

[6] = biological target: T1, Myc-STAT3 wild type (purified); test: competition; 200-fold unlabeled competitor; Pull-down: 20 mM Hepes pH 7.9, 100 mM KCl, 5 mM MgCl2, 0.1 mM EDTA, 4 mM DTT, 12% glycerol, 60 min room temperature (Fig 6D: 30 min on ice); EMSA: LightShift chemiluminescent kit, buffer not stated; conditions: protein: recombinant; tags: Myc; chain copies: 2

Binder | binding result [1] | binding result [2] | binding result [3] | binding result [4] | binding result [5] | binding result [6]
B1 | binds | no binding | binds | binds | binds | –
B2 | – | – | – | – | – | binds

Source: PMC4605325, “The STAT3 HIES mutation is a gain-of-function mutation that activates genes via AGG-element carrying promoters”
